The results in this text go back to article PMC4034690.

Assay [1] deals with γ-TuSC^Spc98Δ1–156 [S. cerevisiae]. The experiment in a line: GST pull-down, immunoblot anti-Tub4 (bound Tub4), Li-cor quantification. The conditions noted are these: 300 nM Spc110 1-220; read off a plot; scale: %. (In western blotting, separated proteins are transferred to a membrane and probed.)
Assay [2] has the same target. Briefly: GST pull-down, immunoblot anti-His (bound Spc97/Spc98), Li-cor quantification. The following applies: 300 nM Spc110 1-220; read off a plot; scale: %.
For assay [3], the target named is γ-tubulin small complex (γ-TuSC) [S. cerevisiae]. Briefly: GST pull-down, immunoblot anti-Tub4 (bound Tub4), Li-cor quantification. The following applies: 300 nM Spc110 1-220; read off a plot.
Assay [4] shares this target. Briefly: GST pull-down, immunoblot anti-His (bound Spc97, Spc98), Li-cor quantification. The following applies: 300 nM Spc110 1-220; read off a plot.
Assay [5] has as its target γ-tubulin small complex (γ-TuSC), P53378;P38863;P53540. The experiment in a line: GST pull-down, immunoblot anti-Tub4 (bound Tub4), Li-cor quantification. The following applies: 300 nM Spc110 1-220; read off a plot.
Assay [6] concerns the target γ-TuSC^Spc98Δ1–156, P53378;P38863;P53540. The assay is described as above. The conditions noted are these: 300 nM Spc110 1-220; parent: est. 42; read off a plot; scale: %.
Assay [7] has as its target γ-tubulin small complex (γ-TuSC), P53378;P38863;P53540. The experiment in a line: GST pull-down, immunoblot anti-His (bound Spc97/Spc98), Li-cor quantification. The following applies: 300 nM Spc110 1-220; read off a plot.
The target in assay [8] is γ-TuSC^Spc98Δ1–156, P53378;P38863;P53540. The assay is described as above. The conditions noted are these: 300 nM Spc110 1-220; parent: est. 6; read off a plot; scale: %.
Assay [9] addresses GST-Spc110^1–220-5D (S. cerevisiae) (UniProt P32380).
Assay [10] concerns the target GST-Spc110^1–220-3D (S. cerevisiae) (UniProt P32380).
Assay [11] concerns the target GST-Spc110^1–220-2D (S. cerevisiae) (UniProt P32380).
In assay [12] the target is γ-tubulin small complex (γ-TuSC) (S. cerevisiae) (UniProt P53378). Briefly: SEC; as a3 (TB150, Superose 6 10/300) but with the concentrations of γ-TuSC and Spc110^1–220 variants doubled (Figure 2—figure supplement 2A). On the technique in general: Size exclusion chromatography separates by hydrodynamic size, large species first.
Assay [13] has the same target. Briefly: SEC; γ-TuSC mixed with GST-Spc110^1–220 variant in 1:4 molar ratio (2.3:9.3) in TB150 buffer, 1 hr at 4°C, Superdex 200 10/300 or Superose 6 10/300; shift of γ-TuSC to the void volume; fractions by SDS-PAGE and silver staining; void-volume fraction also by negative-stain electron microscopy.

In the case of “GST-Spc110^1–220 (wild type, from E. coli, non-phosphorylated) mutant S36D; S60D; T64D; T68D; S91D [S. cerevisiae] / γ-TuSC^Spc98Δ1–156 [S. cerevisiae] chain 1 S36D, chain 1 S60D, chain 1 T64D, chain 1 T68D, chain 1 S91D”, the response in assay [1] was determined as 42; in [2], 6.
“GST-Spc110^1–220 (wild type, from E. coli, non-phosphorylated) mutant S36D; S60D; T64D; T68D; S91D [S. cerevisiae] / γ-tubulin small complex (γ-TuSC) [S. cerevisiae] chain 1 S36D, chain 1 S60D, chain 1 T64D, chain 1 T68D, chain 1 S91D”: the response in assay [3] was determined as 11000 RU; in [4], 8300 RU.
For “GST-Spc110^1–220 (wild type, from E. coli, non-phosphorylated) mutant S36D; S91D [S. cerevisiae] / γ-tubulin small complex (γ-TuSC) [S. cerevisiae] chain 1 S36D, chain 1 S91D” the same measures were 3300 RU and 3300 RU.
Regarding “GST-Spc110^1–220 (wild type, from E. coli, non-phosphorylated) mutant S60D; T64D; T68D [S. cerevisiae] / γ-tubulin small complex (γ-TuSC) [S. cerevisiae] chain 1 S60D, chain 1 T64D, chain 1 T68D”, the values for the response in assay [3] and in [4] were 10000 RU and 7400 RU, respectively.
Consider “GST-Spc110^1–220-5D (from UniProt P32380) CM1-QA”, for which the results for the percent of parent in [5] and in [7] were 49% and 45%, respectively. Further, the values for the response in [6] and in [8] were 34 and 3, respectively.
As to “GST-Spc110^1–220-5D (from UniProt P32380) T18D; CM1-QA”, the percent of parent in [5] came to 40%; in [7], 16%. Moreover, the response amounted to 32 in assay [6] and 9 in assay [8].
For “γ-tubulin small complex (γ-TuSC), P53378 1-473; P38863 1-823; P53540 1-846”, the in vitro MT nucleation activity (MTs/field normalised to buffer only); 3 μM γ-TuSC pre-incubated with 15 μM GST-Spc110^1–220 variant; compared to the buffer control and γ-TuSC alone in [9], in assay [10] and in assay [11] was 3 fold in each case. For the same substance, the figures for the stoichiometry N in assay [12] and in assay [13] were 2 and greater than 14, respectively.
